# Measurements as given in patent US20200078470A1.
# Target: M6P receptor (M6PR)
# Assay: SPR (BIACORE T200), M6PR amine-coupled on CM5 chip, conjugate 200 nM to 12.5 nM, 1:1 Langmuir model
substance,measurement,value
imiglucerase long-acting conjugate (from UniProt P04062 40-536; P01861 107-327),M6PR Binding Affinity (relative to imiglucerase = 100%),22%
